# Assay results published in PMC3894216 (PLoS Pathogens, 2014).
# Biological target: the molecule itself
# Assay: SDS-stable oligomer band of the purified protein
protein,measurement,value
GST-CNF1 N-terminal fragment (aa 1-342) (domain or fragment) MGNQWQQKYLLEYNELVSNFPSPERVVSDYIKNCFKTDLPWFSRIDPDNAYFICFSQNRSNSRSYTGWDHLGKYKTEVLTLTQAALINIGYRFDVFDDANSSTGIYKTKSADVFNEENEEKMLPSEYLHFLQKCDFAGVYGKTLSDYWSKYYDKFKLLLKNYYISSALYLYKNGELDEREYNFSMNALNRSDNISLLFFDIYGYYASDIFVAKNNDKVMLFIPGAKKPFLFKKNIADLRLTLKELIKDSDKQQLLSQHFSLYSRQDGVSYAGVNSVLHAIENDGNFNESYFLYSNKTLSNKDVFDAIAISVKKRSFSDGDIVIKSNSEAQRDYALTILQTIL,stoichiometry N,4
